Experimental data reported in PMC9482650, “Quantitative fragmentomics allow affinity mapping of interactomes” (Nature Communications, 2022).

T1: ARHGEF11, O15085
T1 sequence (O15085 42-136, limits assumed, looked up): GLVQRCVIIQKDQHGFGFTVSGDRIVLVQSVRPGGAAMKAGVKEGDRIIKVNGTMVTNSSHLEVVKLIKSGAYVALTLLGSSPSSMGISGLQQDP

T2: DLG3_2, Q92796
T2 sequence (Q92796 221-321, limits assumed, looked up): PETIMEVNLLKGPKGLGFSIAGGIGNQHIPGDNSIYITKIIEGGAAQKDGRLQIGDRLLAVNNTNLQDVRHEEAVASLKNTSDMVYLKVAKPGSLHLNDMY

T3: FRMPD1, Q5SYB0
T3 sequence (Q5SYB0 52-145, limits assumed, looked up): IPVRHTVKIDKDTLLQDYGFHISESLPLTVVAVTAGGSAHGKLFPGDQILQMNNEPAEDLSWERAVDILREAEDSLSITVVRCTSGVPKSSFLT

T4: LIN7A, O14910
T4 sequence (O14910 103-200, limits assumed, looked up): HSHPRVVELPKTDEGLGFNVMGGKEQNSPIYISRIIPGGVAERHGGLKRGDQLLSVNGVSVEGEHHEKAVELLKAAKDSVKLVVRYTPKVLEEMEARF

T5: MPDZ_12, O75970
T5 sequence (O75970 1857-1958, limits assumed, looked up): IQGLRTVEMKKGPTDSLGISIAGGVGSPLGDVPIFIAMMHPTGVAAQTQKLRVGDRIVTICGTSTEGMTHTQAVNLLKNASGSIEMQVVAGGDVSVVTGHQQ

T6: PCLO, Q9Y6V0
T6 sequence (Q9Y6V0 4491-4600, limits assumed, looked up): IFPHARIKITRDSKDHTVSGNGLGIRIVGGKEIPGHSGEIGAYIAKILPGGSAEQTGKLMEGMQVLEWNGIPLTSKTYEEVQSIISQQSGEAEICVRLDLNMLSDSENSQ

T7: PTPN13_1, Q12923
T7 sequence (Q12923 1088-1188, limits assumed, looked up): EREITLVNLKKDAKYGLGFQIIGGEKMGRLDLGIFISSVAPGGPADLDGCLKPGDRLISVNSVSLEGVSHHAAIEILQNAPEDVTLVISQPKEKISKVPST

T8: SHANK1, Q9Y566
T8 sequence (Q9Y566 658-767, limits assumed, looked up): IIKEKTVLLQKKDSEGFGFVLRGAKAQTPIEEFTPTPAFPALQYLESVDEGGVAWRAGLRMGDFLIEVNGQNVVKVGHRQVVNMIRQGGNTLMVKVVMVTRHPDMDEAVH

T9: TX1BP3, O14907
T9 sequence (O14907 10-122, limits assumed, looked up): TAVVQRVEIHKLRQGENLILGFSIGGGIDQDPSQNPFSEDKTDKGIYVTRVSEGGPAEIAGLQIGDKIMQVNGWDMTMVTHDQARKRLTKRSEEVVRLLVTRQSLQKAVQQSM


How the values were obtained:
Experiment in all cases: holdup assay
Design in all cases: key: below the threshold = too weak to quantify, mostly under pKd 3.1 to 4
Settings in all cases: plain residues with an end cap or a label only (N-terminal biotin on a linker: ado-ado)
ARHGEF11, O15085 = target: T1, ARHGEF11, O15085
DLG1_1, Q12959 = target: DLG1_1, Q12959
DLG2_3, Q15700 = target: DLG2_3, Q15700
DLG3_2, Q92796 = target: T2, DLG3_2, Q92796
DLG5_1, Q8TDM6 = target: DLG5_1, Q8TDM6
Chain of DLG5_1, Q8TDM6 (Q8TDM6 617-713): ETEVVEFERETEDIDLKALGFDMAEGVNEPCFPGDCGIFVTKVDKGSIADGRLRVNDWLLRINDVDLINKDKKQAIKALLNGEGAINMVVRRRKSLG

FRMPD1, Q5SYB0 = target: T3, FRMPD1, Q5SYB0
GIPC2, Q8TF65 = target: GIPC2, Q8TF65
Chain of GIPC2, Q8TF65 (Q8TF65 112-203): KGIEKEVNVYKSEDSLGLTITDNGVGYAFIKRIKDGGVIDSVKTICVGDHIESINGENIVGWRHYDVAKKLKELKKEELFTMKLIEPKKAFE

GORASP2, Q9H8Y8 = target: GORASP2, Q9H8Y8
GRASP, Q7Z6J2 = target: GRASP, Q7Z6J2
Chain of GRASP, Q7Z6J2 (Q7Z6J2 96-193): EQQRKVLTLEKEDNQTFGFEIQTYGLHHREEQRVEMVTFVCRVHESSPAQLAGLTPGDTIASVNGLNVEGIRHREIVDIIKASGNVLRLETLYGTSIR

GRID2IP_1, A4D2P6 = target: GRID2IP_1, A4D2P6
Chain of GRID2IP_1, A4D2P6 (A4D2P6 1-87): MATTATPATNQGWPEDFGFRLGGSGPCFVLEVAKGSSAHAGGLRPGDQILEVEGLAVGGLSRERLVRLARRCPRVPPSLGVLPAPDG

Inadl_1, Q8NI35 = target: Inadl_1, Q8NI35
Chain of Inadl_1, Q8NI35 (Q8NI35 113-229): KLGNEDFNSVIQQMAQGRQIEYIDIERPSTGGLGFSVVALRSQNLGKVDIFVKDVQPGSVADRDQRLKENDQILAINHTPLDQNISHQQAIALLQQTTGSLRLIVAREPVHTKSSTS

Inadl_10, Q8NI35 = target: Inadl_10, Q8NI35
Chain of Inadl_10, Q8NI35 (Q8NI35 1673-1763): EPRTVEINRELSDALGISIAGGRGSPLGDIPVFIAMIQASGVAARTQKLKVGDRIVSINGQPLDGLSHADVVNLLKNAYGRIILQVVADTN

Inadl_5, Q8NI35 = target: Inadl_5, Q8NI35
Chain of Inadl_5, Q8NI35 (Q8NI35 673-780): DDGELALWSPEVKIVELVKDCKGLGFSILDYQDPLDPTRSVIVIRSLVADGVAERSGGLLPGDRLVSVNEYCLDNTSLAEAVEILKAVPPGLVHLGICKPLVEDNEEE

Inadl_9, Q8NI35 = target: Inadl_9, Q8NI35
Chain of Inadl_9, Q8NI35 (Q8NI35 1530-1615): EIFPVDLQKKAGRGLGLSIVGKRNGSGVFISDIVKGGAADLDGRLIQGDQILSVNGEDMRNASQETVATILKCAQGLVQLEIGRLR

LIN7A, O14910 = target: T4, LIN7A, O14910
LNX1_1, Q8TBB1 = target: LNX1_1, Q8TBB1
Chain of LNX1_1, Q8TBB1 (Q8TBB1 261-371): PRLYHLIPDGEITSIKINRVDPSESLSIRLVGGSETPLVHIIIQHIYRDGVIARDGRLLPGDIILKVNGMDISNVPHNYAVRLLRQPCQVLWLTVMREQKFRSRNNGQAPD

MAGI2_2, Q86UL8 = target: MAGI2_2, Q86UL8
Chain of MAGI2_2, Q86UL8 (Q86UL8 410-522): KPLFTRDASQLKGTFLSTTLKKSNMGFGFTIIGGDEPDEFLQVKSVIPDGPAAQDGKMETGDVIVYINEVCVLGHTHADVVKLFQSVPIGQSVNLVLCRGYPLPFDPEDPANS

MAGI2_3, Q86UL8 = target: MAGI2_3, Q86UL8
Chain of MAGI2_3, Q86UL8 (Q86UL8 600-682): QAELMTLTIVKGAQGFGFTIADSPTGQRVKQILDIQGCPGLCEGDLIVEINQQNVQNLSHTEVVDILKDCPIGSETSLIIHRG

MAGI2_6, Q86UL8 = target: MAGI2_6, Q86UL8
Chain of MAGI2_6, Q86UL8 (Q86UL8 1141-1229): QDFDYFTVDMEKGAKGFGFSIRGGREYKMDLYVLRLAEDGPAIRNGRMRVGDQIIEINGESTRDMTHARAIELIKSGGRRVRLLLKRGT

MAST2, Q6P0Q8 = target: MAST2, Q6P0Q8
Chain of MAST2, Q6P0Q8 (Q6P0Q8 1099-1202): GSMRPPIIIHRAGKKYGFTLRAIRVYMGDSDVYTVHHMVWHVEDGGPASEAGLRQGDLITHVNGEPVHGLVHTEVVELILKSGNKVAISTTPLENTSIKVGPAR

MPDZ_12, O75970 = target: T5, MPDZ_12, O75970
NHERF2_2, Q15599 = target: NHERF2_2, Q15599
Chain of NHERF2_2, Q15599 (Q15599 142-238): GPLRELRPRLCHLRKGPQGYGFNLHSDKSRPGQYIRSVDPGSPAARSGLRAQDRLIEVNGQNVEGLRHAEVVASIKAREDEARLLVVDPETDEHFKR

NHERF4_4, Q86UT5 = target: NHERF4_4, Q86UT5
Chain of NHERF4_4, Q86UT5 (Q86UT5 464-550): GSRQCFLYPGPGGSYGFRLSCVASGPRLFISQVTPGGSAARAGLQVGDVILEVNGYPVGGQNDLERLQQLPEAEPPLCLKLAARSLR

PCLO, Q9Y6V0 = target: T6, PCLO, Q9Y6V0
PDZRN4_1, Q6ZMN7 = target: PDZRN4_1, Q6ZMN7
Chain of PDZRN4_1, Q6ZMN7 (Q6ZMN7 213-318): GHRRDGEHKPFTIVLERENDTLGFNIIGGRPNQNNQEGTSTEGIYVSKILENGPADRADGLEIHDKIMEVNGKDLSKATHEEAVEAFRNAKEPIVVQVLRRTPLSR

PTPN13_1, Q12923 = target: T7, PTPN13_1, Q12923
PTPN3, P26045 = target: PTPN3, P26045
Chain of PTPN3, P26045 (P26045 505-587): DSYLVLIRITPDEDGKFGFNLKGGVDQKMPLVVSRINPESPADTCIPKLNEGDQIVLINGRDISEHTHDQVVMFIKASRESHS

SHANK1, Q9Y566 = target: T8, SHANK1, Q9Y566
TX1BP3, O14907 = target: T9, TX1BP3, O14907

pKd (ARHGEF11, O15085)	pKd (DLG1_1, Q12959)	pKd (DLG2_3, Q15700)	pKd (DLG3_2, Q92796)	pKd (DLG5_1, Q8TDM6)	pKd (FRMPD1, Q5SYB0)	pKd (GIPC2, Q8TF65)	pKd (GORASP2, Q9H8Y8)	pKd (GRASP, Q7Z6J2)	pKd (GRID2IP_1, A4D2P6)	pKd (Inadl_1, Q8NI35)	pKd (Inadl_10, Q8NI35)	pKd (Inadl_5, Q8NI35)	pKd (Inadl_9, Q8NI35)	pKd (LIN7A, O14910)	pKd (LNX1_1, Q8TBB1)	pKd (MAGI2_2, Q86UL8)	pKd (MAGI2_3, Q86UL8)	pKd (MAGI2_6, Q86UL8)	pKd (MAST2, Q6P0Q8)	further results	Binder
4.36	below the threshold	below the threshold	below the threshold	below the threshold	below the threshold	below the threshold	3.81	below the threshold	below the threshold	below the threshold	below the threshold	4.1	4.34	below the threshold	below the threshold	below the threshold	3.64	below the threshold	4.1	pKd (MPDZ_12, O75970): 3.53; pKd (NHERF2_2, Q15599): 3.51; pKd (NHERF4_4, Q86UT5): 3.92; pKd (PCLO, Q9Y6V0): below the threshold; pKd (PDZRN4_1, Q6ZMN7): below the threshold; pKd (PTPN13_1, Q12923): below the threshold; pKd (PTPN3, P26045): 3.97; pKd (SHANK1, Q9Y566): 3.54; pKd (TX1BP3, O14907): below the threshold	QMNQTLPVQV [EPHB3, P54753]
4.07	below the threshold	3.65	4	below the threshold	below the threshold	below the threshold	4.72	3.53	below the threshold	3.64	below the threshold	below the threshold	3.48	below the threshold	below the threshold	below the threshold	below the threshold	below the threshold	4.08	pKd (MPDZ_12, O75970): below the threshold; pKd (NHERF2_2, Q15599): below the threshold; pKd (NHERF4_4, Q86UT5): 3.66; pKd (PCLO, Q9Y6V0): below the threshold; pKd (PDZRN4_1, Q6ZMN7): below the threshold; pKd (PTPN13_1, Q12923): below the threshold; pKd (PTPN3, P26045): below the threshold; pKd (SHANK1, Q9Y566): below the threshold; pKd (TX1BP3, O14907): below the threshold	DDEDRLVIEI [ZNF831, Q5JPB2]
3.82	below the threshold	below the threshold	below the threshold	below the threshold	below the threshold	below the threshold	below the threshold	3.74	below the threshold	below the threshold	below the threshold	below the threshold	below the threshold	below the threshold	below the threshold	below the threshold	below the threshold	below the threshold	4.41	pKd (MPDZ_12, O75970): below the threshold; pKd (NHERF2_2, Q15599): 3.96; pKd (NHERF4_4, Q86UT5): below the threshold; pKd (PCLO, Q9Y6V0): below the threshold; pKd (PDZRN4_1, Q6ZMN7): below the threshold; pKd (PTPN13_1, Q12923): below the threshold; pKd (PTPN3, P26045): 4.04; pKd (SHANK1, Q9Y566): below the threshold; pKd (TX1BP3, O14907): below the threshold	IPLDGETEEL [MYOZ1, Q9NP98]
4.41	4.23	4.19	4.53	below the threshold	below the threshold	3.92	below the threshold	4.21	below the threshold	below the threshold	below the threshold	below the threshold	below the threshold	4.04	3.66	3.66	3.5	4.16	5.64	pKd (MPDZ_12, O75970): below the threshold; pKd (NHERF2_2, Q15599): 4.75; pKd (NHERF4_4, Q86UT5): below the threshold; pKd (PCLO, Q9Y6V0): below the threshold; pKd (PDZRN4_1, Q6ZMN7): 5.27; pKd (PTPN13_1, Q12923): below the threshold; pKd (PTPN3, P26045): 5; pKd (SHANK1, Q9Y566): 4.64; pKd (TX1BP3, O14907): 4.8	RHGSCVETSL [TMEM151B, Q8IW70]
